For assay [1], the target named is HLA-A*02:01. Briefly: IEDB peptide-MHC binding, purified MHC/competitive/fluorescence; filed as Kd, often an IC50 or EC50 that approximates it; ≥ and ≤ were set here for values at or beyond the usual limits of such assays.
In assay [2] the target is HLA-B*15:01. Briefly: IEDB peptide-MHC binding, purified MHC/competitive/radioactivity; filed as Kd, often an IC50 or EC50 that approximates it; ≥ and ≤ were set here for values at or beyond the usual limits of such assays.
For assay [3], the target named is HLA-A*30:02. Described as above.
Assay [4] deals with HLA-A*31:01. The assay is described as follows: IEDB peptide-MHC binding, purified MHC/direct/fluorescence; filed as Kd, often an IC50 or EC50 that approximates it; ≥ and ≤ were set here for values at or beyond the usual limits of such assays. The note with it: source organism: SARS-CoV1.
For assay [5], the target named is HLA-A*68:01. Briefly: IEDB peptide-MHC binding, purified MHC/competitive/radioactivity; filed as Kd, often an IC50 or EC50 that approximates it; ≥ and ≤ were set here for values at or beyond the usual limits of such assays. Conditions: source organism: SARS coronavirus Tor2.
For assay [6], the target named is HLA-A*33:01. Described as above. The note with it: source organism: SARS coronavirus Tor2.
Assay [7] has as its target HLA-A*02:06. Described as above.
Assay [8] addresses HLA-A*02:01. The assay is described as follows: IEDB peptide-MHC binding, purified MHC/competitive/fluorescence; ≥ and ≤ were set here for values at or beyond the usual limits of such assays.
Assay [9] has as its target HLA-A*24:02. Described as above.
Assay [10] has as its target HLA-A*02:01. The assay is described as follows: IEDB peptide-MHC binding, purified MHC/competitive/radioactivity; filed as Kd, often an IC50 or EC50 that approximates it; ≥ and ≤ were set here for values at or beyond the usual limits of such assays.
The target of assay [11] is HLA-A*30:01. Described as above.
Assay [12] concerns the target HLA-A*02:03. The assay is described as above.
Assay [13] addresses HLA-A*02:02. The assay is described as above. The note with it: source organism: Homo sapiens.
The target in assay [14] is HLA-A*01:01. The assay is described as follows: IEDB peptide-MHC binding, purified MHC/direct/fluorescence; filed as Kd, often an IC50 or EC50 that approximates it; ≥ and ≤ were set here for values at or beyond the usual limits of such assays. Conditions: source organism: Influenza A virus (A/Moscow/343/2003(H3N2)).
In assay [15] the target is HLA-A*01:01. The assay is described as follows: IEDB peptide-MHC binding, purified MHC/competitive/radioactivity; filed as Kd, often an IC50 or EC50 that approximates it; ≥ and ≤ were set here for values at or beyond the usual limits of such assays.
The target of assay [16] is HLA-A*32:01. The assay is described as above. Conditions: source organism: Mammarenavirus guanaritoense.
The target in assay [17] is HLA-A*29:02. Described as above. The note with it: source organism: Mammarenavirus guanaritoense.
Assay [18] concerns the target HLA-A*26:01. The assay is described as above.
Assay [19] concerns the target HLA-A*11:01. The assay is described as follows: IEDB peptide-MHC binding, purified MHC/direct/fluorescence; filed as Kd, often an IC50 or EC50 that approximates it; ≥ and ≤ were set here for values at or beyond the usual limits of such assays. The note with it: source organism: Homo sapiens.
The target of assay [20] is HLA-B*27:05. The assay is described as above. Conditions: source organism: Homo sapiens.
Assay [21] has as its target HLA-B*08:01. The assay is described as follows: IEDB peptide-MHC binding, purified MHC/competitive/radioactivity; filed as Kd, often an IC50 or EC50 that approximates it; ≥ and ≤ were set here for values at or beyond the usual limits of such assays. Conditions: source organism: Dengue virus 1 Singapore/S275/1990.
Where [22] appears, read: source organism: Dengue virus 2 Jamaica/1409/1983.
The mark [23] stands for this setting: source organism: Dengue virus 1 Brazil/97-11/1997.
[24] abbreviates: source organism: Vaccinia virus WR.
[25] abbreviates: source organism: Sudan ebolavirus.
Where [26] appears, read: source organism: Zaire ebolavirus.
The mark [27] stands for this setting: source organism: Dengue virus 4 Philippines/H241/1956.
[28] abbreviates: source organism: Vaccinia virus.
[29] abbreviates: source organism: Mammarenavirus guanaritoense.
Where [30] appears, read: source organism: Dengue virus 3 Martinique/1243/1999.

As to ALAWSLQML, the Kd in assay [1] (source organism: Escherichia coli O139:H28 str. E24377A) came to 3.4 nM. Consider ALHQVFGAIY, for which the Kd is 4.38 nM in assay [2] (setting [22]) and 71.8 nM in assay [3] (setting [22]). As for ALRANSAVK, the Kd was 479 nM in [4], at least 26.4 µM in assay [5] and at least 77.7 µM in [6]. As to AQMWQLMYF, the Kd is 1.58 nM in assay [2] (setting [23]) and 9.54 nM in assay [7] (setting [23]).

With AQNALDNLVM, in assay [2] (setting [23]), the Kd stood at 2.02 nM.

As to ASNIVLDQI, the IC50 in assay [8] (setting [24]) is at least 86.2 µM; in assay [9] (setting [24]), 5.24 µM. Turning to ATGKCNPNL, the IC50 in assay [8] (setting [25]) was 12.3 µM; in [9] (setting [25]), at least 142 µM. As to AWQSVGHMM, the IC50 in assay [8] (setting [26]) is at least 180 µM; in assay [9] (setting [26]), 34.7 µM. Regarding CINGVCWTA, the Kd in assay [10] (source organism: hepatitis C virus genotype 1a) was found to be 2700 nM. In the case of CRSCTMPPLR, in [11] (setting [27]), the Kd came to 1530 nM. On the same count and under the same terms, as for CTREEFISK, the figure is 21.1 nM.

On to DLEDLKDQI, for which the Kd in assay [12] (source organism: Homo sapiens) is 13.6 µM; in assay [13], 16.4 µM; in [7] (source organism: Homo sapiens) it was at least 78700 nM; in assay [10] (source organism: Homo sapiens) it was at least 24300 nM. In assay [9] (setting [28]), DRDINPIVK yielded an IC50 of 33.5 µM. As to DTKIDLWSY, the Kd in assay [14] was at least 20 µM. In [9] (source organism: Variola virus), EDDRERLKV gave an IC50 of 0.0168 µM. As to ELLSYCVSLF, the Kd in assay [15] (setting [29]) is 261 nM; in [16], 2640 nM; in assay [17] it was 5.8 µM; in assay [3] (setting [29]) it was 9750 nM; in assay [18] (setting [29]) it was 99.3 nM; in [11] (setting [29]), 1060 nM.

In [9] (setting [26]), ESRFTPQFL gave an IC50 of 22.4 µM.

Turning to ETWILRHPGF, the Kd came to 1380 nM in [18] (setting [22]) and 12300 nM in assay [11] (setting [22]). For GLFGKGSLV, the figures for the Kd in assay [12] (setting [30]) and in [10] (source organism: dengue virus type 3) were 0.00292 µM and 2.9 nM, respectively. On to GLLEAGNSL, for which the Kd in assay [1] (setting [24]) came out at 3.2 nM. As for GQITWRDMAH, the Kd in assay [2] (setting [30]) is 153 nM. Consider GRNSFEVRV, for which the results for the Kd in assay [19] and in [20] were at least 37.7 µM and 1060 nM, respectively.

Consider HTAEAGGRAY, for which the Kd was at least 70400 nM in [15] (setting [22]), 115 nM in assay [2] (setting [22]), 25.1 nM in [3] (setting [22]) and 24.6 nM in assay [18] (setting [22]). Consider HTKIDSMFL, for which the Kd in assay [11] (setting [24]) was 1.46 nM. This sequence also yielded an IC50 in assay [8] (source organism: Variola virus) of 53.7 µM.

Consider IHQGMHMVA, for which the IC50 in assay [8] (setting [26]) is at least 84.7 µM; in [9] (setting [26]) it was at least 185 µM.

Consider IMAVGIVSIL, for which the Kd in [2] (source organism: Dengue virus 1 Singapore/S275/1990) came out at 8.03 nM; in assay [21] it was 173 nM. As for ISRNKNIFV, the Kd in assay [11] (setting [24]) came to 7.28 nM. In assay [9] (setting [26]), IWKVNPEID gave an IC50 of 62.1 µM. IYRGTTFAE had an IC50 in assay [9] (setting [26]) of 9.88 µM. As for KAYHIIFFV, the Kd in assay [11] (setting [24]) was 405 nM. For KGKRALAPPV, the Kd in [11] (setting [27]) turned out to be 2.27 nM.

Consider KLFSDISAI, for which the Kd in assay [1] (setting [28]) stood at 2.2 nM. Turning to KLHSGVDVFY, the Kd was found to be 2870 nM in assay [15] (setting [27]), 2.76 nM in [2] (setting [27]) and 12.1 nM in assay [3] (setting [27]). Sequence KLVVVAVGV registered a Kd in assay [1] (source organism: Schaalia radingae) of 10 nM.

The values above are taken from the Immune Epitope Database (IEDB).
